Reference: US20240391984A1
Changes are numbered by the printed parent chain. In names and notes the source's numbering stands.

B1: pAM246 (Protein L C3b domain; N10H, N45H, N60Q) (designed binder)
chain: PKEEVTIKVHLIFADGKIQTAEFKGTFEEATAKAYAYADLLAKEHGEYTADLEDGGYTIQIKFAGKETPETPEE
B2: pAM245 (Protein L C3 domain; H, H, Q at positions 10, 45, 60) (designed binder)
chain: B1 chain with D39N, Y57N
B3: pAM261 (Protein L C4 domain; N10H, N45H, N60Y) (designed binder)
chain: PKEEVTIKVHLIFADGKTQTAEFKGTFEEATAEAYRYADLLAKVHGEYTADLEDGGYTIYIKFAGKEQPGENPG
B4: pAM258 (Protein L C2b domain; N10H, N45H, N60Y) (designed binder)
chain: B1 chain with I18T, Q60Y
B5: pAM247 (Protein L C4 domain; N10H, N45H, N60Q) (designed binder)
chain: B3 chain with Y60Q
B6: pAM249 (Protein L B1 domain; N10H, N45H, N60Y) (designed binder)
chain: SEEEVTIKAHLIFANGSTQTAEFKGTFEKATSEAYAYADTLKKDHGEYTVDVADKGYTLYIKFAGKEKTPEE
B7: pAM235 (Protein L B1 domain; N10H, N45H, N60Q) (designed binder)
chain: B6 chain with Y60Q
B8: pAM259 (Protein L C3 domain; H, H, Y at positions 10, 45, 60) (designed binder)
chain: B1 chain with D39N, Y57N, Q60Y
B9: pAM243 (Protein L C2 domain; H, H, Q at positions 10, 45, 60) (designed binder)
chain: B1 chain with I18T, Y57N
B10: pAM260 (Protein L C3b domain; N10H, N45H, N60Y) (designed binder)
chain: B1 chain with Q60Y
B11: pAM257 (Protein L C2 domain; H, H, Y at positions 10, 45, 60) (designed binder)
chain: B1 chain with I18T, Y57N, Q60Y
B12: pAM244 (Protein L C2b domain; N10H, N45H, N60Q) (designed binder)
chain: B1 chain with I18T
B13: pAM262 (D1 domain; N10H, N45H, N60Y) (designed binder)
chain: PKEEVTIKAHLIFADGKTQTAEFKGTFEEATAEAYRYADLLAKVHGEYTADLEDGGYTIYIKFAGKEQPGEN
B14: pAM248 (D1 domain; N10H, N45H, N60Q) (designed binder)
chain: B13 chain with Y60Q
B15: pAM253 (Protein L B4 domain; N10H, N45H, N60Y) (designed binder)
chain: PKEEVTIKAHLIYADGKTQTAEFKGTFAEATAEAYRYADLLAKEHGKYTADLEDGGYTIYIRFAGKKVDEKPEE
B16: pAM239 (Protein L B4 domain; N10H, N45H, N60Q) (designed binder)
chain: B15 chain with Y60Q
B17: pAM114 (wt B3 domain of Protein L) (protein)
chain: PKEEVTIKANLIYADGKTQTAEFKGTFEEATAEAYRYADLLAKENGKYTVDVADKGYTLNIKFAGKEKTPEE
B18: pAM238 (Protein L B3 domain; N10H, N45H, N60Q) (designed binder)
chain: B17 chain with N10H, N45H, N60Q
B19: pAM252 (Protein L B3 domain; N10H, N45H, N60Y) (designed binder)
chain: B17 chain with N10H, N45H, N60Y
B20: pAM237 (Protein L B2 domain; N10H, N45H, N60Q) (designed binder)
chain: B17 chain with N10H, T31A, L40A, A42K, E44D, N45H, K47E, N60Q
B21: pAM251 (Protein L B2 domain; N10H, N45H, N60Y) (designed binder)
chain: B17 chain with N10H, T31A, L40A, A42K, E44D, N45H, K47E, N60Y
B22: pAM240 (Protein L B5b domain; H, H, Q at positions 10, 45, 60) (designed binder)
chain: KEQVTIKEHIYFEDGTVQTATFKGTFAEATAEAYRYADLLSKEHGKYTADLEDGGYTIQIRFAGKEEPEE
B23: pAM254 (Protein L B5b domain; H, H, Y at positions 10, 45, 60) (designed binder)
chain: B22 chain with Q59Y
B24: pAM241 (Protein L C1 domain; H, H, Q at positions 10, 45, 60) (designed binder)
chain: PEEEVTIKAHLIFADGSTQNAEFKGTFAKAVSDAYAYADALKKDHGEYTVDVADKGLTLQIKFAGKKEKPEE
B25: pAM255 (Protein L C1 domain; H, H, Y at positions 10, 45, 60) (designed binder)
chain: B24 chain with Q60Y
B26: pAM121 (B3 domain of Protein L; pos 10 N, pos 45 H, pos 60 Q) (designed binder)
chain: B17 chain with N45H, N60Q
B27: pAM133 (B3 domain of Protein L; pos 10 Y, pos 45 A, pos 60 N) (designed binder)
chain: B17 chain with N10Y, N45A
B28: pAM131 (B3 domain of Protein L; pos 10 Q, pos 45 H, pos 60 Y) (designed binder)
chain: B17 chain with N10Q, N45H, N60Y
B29: pAM132 (B3 domain of Protein L; pos 10 Y, pos 45 N, pos 60 N) (designed binder)
chain: B17 chain with N10Y
B30: pAM118 (B3 domain of Protein L; pos 10 N, pos 45 N, pos 60 Y) (designed binder)
chain: B17 chain with N60Y
B31: pAM137 (B3 domain of Protein L; pos 10 Y, pos 45 A, pos 60 Q) (designed binder)
chain: B17 chain with N10Y, N45A, N60Q
B32: pAM125 (B3 domain of Protein L; pos 10 Q, pos 45 H, pos 60 N) (designed binder)
chain: B17 chain with N10Q, N45H
B33: pAM140 (B3 domain of Protein L; pos 10 Y, pos 45 H, pos 60 Y) (designed binder)
chain: B17 chain with N10Y, N45H, N60Y
B34: pAM120 (B3 domain of Protein L; pos 10 N, pos 45 A, pos 60 Y) (designed binder)
chain: B17 chain with N45A, N60Y
B35: pAM127 (B3 domain of Protein L; pos 10 Q, pos 45 N, pos 60 Y) (designed binder)
chain: B17 chain with N10Q, N60Y
B36: pAM138 (B3 domain of Protein L; pos 10 Y, pos 45 A, pos 60 Y) (designed binder)
chain: B17 chain with N10Y, N45A, N60Y
B37: pAM135 (B3 domain of Protein L; pos 10 Y, pos 45 N, pos 60 Q) (designed binder)
chain: B17 chain with N10Y, N60Q
B38: pAM136 (B3 domain of Protein L; pos 10 Y, pos 45 N, pos 60 Y) (designed binder)
chain: B17 chain with N10Y, N60Y
B39: pAM129 (B3 domain of Protein L; pos 10 Q, pos 45 A, pos 60 Y) (designed binder)
chain: B17 chain with N10Q, N45A, N60Y
B40: pAM122 (B3 domain of Protein L; pos 10 N, pos 45 H, pos 60 Y) (designed binder)
chain: B17 chain with N45H, N60Y
B41: pAM139 (B3 domain of Protein L; pos 10 Y, pos 45 H, pos 60 Q) (designed binder)
chain: B17 chain with N10Y, N45H, N60Q

Molecular target: polyclonal IgG (Gammanorm, Octapharma, Sweden)
Experiment: SPR (Biacore 8K+), steady state fit; summary table, differs from Table 10

Row | Kd [nM] | Binder
1 | 47 | B1
2 | 118 | B2

Molecular target: polyclonal IgG (Gammanorm, Octapharma, Sweden)
Experiment: SPR (Biacore 8K+), variant amine-coupled to CM5, Gammanorm as analyte, steady state fit

Row | Kd [nM] | Binder
3 | 43 | B3
4 | 45 | B4
5 | 38 | B5
6 | 79 | B6
7 | 101 | B7
8 | 49 | B1
9 | 134 | B2
10 | 120 | B8
11 | 83 | B9
12 | 51 | B10
13 | 98 | B11
14 | 50 | B12
15 | 48 | B13
16 | 56 | B14
17 | 54 | B15
18 | 60 | B16
19 | 46 | B17
20 | 82 | B18
21 | 69 | B19
22 | 72 | B20
23 | 55 | B21
24 | 79 | B22
25 | 41 | B23
26 | 187 | B24
27 | 324 | B25

Molecular target: polyclonal IgG (Gammanorm, Octapharma, Sweden)
Experiment: SPR (Biacore 8K+), variant amine-coupled to CM5, Gammanorm as analyte, 1:1 kinetic fit

Row | Kd [nM] | Binder
28 | 12 | B3
29 | 17 | B4
30 | 9 | B5
31 | 29 | B6
32 | 42 | B7
33 | 17 | B1
34 | 65 | B2
35 | 55 | B8
36 | 39 | B9
37 | 18 | B10
38 | 47 | B11
39 | 18 | B12
40 | 11 | B13
41 | 16 | B14
42 | 14 | B15
43 | 17 | B16
44 | 11 | B17
45 | 25 | B18
46 | 16 | B19
47 | 27 | B20
48 | 20 | B21
49 | 15 | B22
50 | 7 | B23
51 | 87 | B24
52 | 146 | B25

Molecular target: polyclonal IgG (Gammanorm, Octapharma, Sweden)
Experiment: SPR (Biacore 8K+), 1:1 kinetic fit; summary table, differs from Table 10

Row | Kd [nM] | Binder
53 | 15 | B1
54 | 54 | B2

Molecular target: polyclonal IgG (Gammanorm, Octapharma, Sweden)
Experiment: SPR (Biacore 8K+), variant amine-coupled to CM5, Gammanorm as analyte, 1:1 kinetic fit
Remark: another data set of the same source

Row | Kd [nM] | Binder
55 | 12 | B17
56 | 22 | B26
57 | 13 | B27
58 | 21 | B28
59 | 15 | B29
60 | 20 | B30
61 | 18 | B31
62 | 15 | B32
63 | 27 | B33
64 | 19 | B34
65 | 15 | B35
66 | 18 | B36
67 | 17 | B37
68 | 19 | B38
69 | 14 | B39
70 | 25 | B40
71 | 22 | B41

Molecular target: polyclonal IgG (Gammanorm, Octapharma, Sweden)
Experiment: SPR (Biacore 8K+), variant amine-coupled to CM5, Gammanorm as analyte, steady state fit
Remark: another data set of the same source

Row | Kd [nM] | Binder
72 | 45 | B17
73 | 76 | B26
74 | 46 | B27
75 | 81 | B28
76 | 50 | B29
77 | 68 | B30
78 | 64 | B31
79 | 50 | B32
80 | 96 | B33
81 | 69 | B34
82 | 62 | B35
83 | 73 | B36
84 | 61 | B37
85 | 77 | B38
86 | 63 | B39
87 | 89 | B40
88 | 71 | B41
